From patent US20150344570A1 (published 2015)

T1: FcγRIIb extracellular domain with C-terminal His tag (human, UniProt P31994 43-217)
T1 construct: extracellular domain; Soluble receptor expressed in FreeStyle293 cells, used as analyte in Biacore; also called FcgRIIb; 2b
T1 sequence (looked up): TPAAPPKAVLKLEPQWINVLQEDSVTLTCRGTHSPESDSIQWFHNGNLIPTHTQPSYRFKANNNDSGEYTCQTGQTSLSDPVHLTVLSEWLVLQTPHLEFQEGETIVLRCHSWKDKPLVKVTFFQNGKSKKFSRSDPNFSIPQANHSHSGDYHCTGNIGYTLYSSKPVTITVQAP

B1: GpH7-A5/GpH7-B3 variant K334_02A/GpL16-k0 (antibody, human IgG1, kappa)
heavy 1: not shown
heavy 2: not shown
light: DIVMTQSPLSLPVTPGEPASISCQASESLVHSNRNTYLHWYLQKPGQSPQLLIYKVSNRFSGVPDRFSGSGSGTDFTLKISRVEAEDVGVYYCSQNTHVPPTFGQGTKVEIERTVAAPSVFIFPPSDEQLKSGTASVVCLLNNFYPREAKVQWKVDNALQSGNSQESVTEQDSKDSTYSLSSTLTLSKADYEKHKVYACEVTHQGLSSPVTKSFNRGEC
notes: Heterodimerized anti-glypican-3 IgG1; mutation in the GpH7-B3 chain only; also called He Ab
B2: GpH7-A5/GpH7-B3 variant K334_04F/GpL16-k0 (antibody, human IgG1, kappa)
heavy 1: not shown
heavy 2: not shown
light: B1 light
notes: as for B1
B3: GpH7-A5/GpH7-B3 variant K334_05P/GpL16-k0 (antibody, human IgG1, kappa)
heavy 1: not shown
heavy 2: not shown
light: B1 light
notes: as for B1
B4: GpH7-A5/GpH7-B3 variant K334_06M/GpL16-k0 (antibody, human IgG1, kappa)
heavy 1: not shown
heavy 2: not shown
light: B1 light
notes: as for B1
B5: GpH7-A5/GpH7-B3 variant K334_07I/GpL16-k0 (antibody, human IgG1, kappa)
heavy 1: not shown
heavy 2: not shown
light: B1 light
notes: as for B1
B6: GpH7-A5/GpH7-B3 variant K334_08L/GpL16-k0 (antibody, human IgG1, kappa)
heavy 1: not shown
heavy 2: not shown
light: B1 light
notes: as for B1
B7: GpH7-A5/GpH7-B3 variant K334_09D/GpL16-k0 (antibody, human IgG1, kappa)
heavy 1: not shown
heavy 2: not shown
light: B1 light
notes: as for B1
B8: GpH7-A5/GpH7-B3 variant P329_02A/GpL16-k0 (antibody, human IgG1, kappa)
heavy 1: not shown
heavy 2: not shown
light: B1 light
notes: as for B1
B9: GpH7-A5/GpH7-B3 variant P329_11K/GpL16-k0 (antibody, human IgG1, kappa)
heavy 1: not shown
heavy 2: not shown
light: B1 light
notes: as for B1
B10: GpH7-A5/GpH7-B3 variant P329_12R/GpL16-k0 (antibody, human IgG1, kappa)
heavy 1: not shown
heavy 2: not shown
light: B1 light
notes: as for B1
B11: GpH7-A5/GpH7-B3 variant Q295_13S/GpL16-k0 (antibody, human IgG1, kappa)
heavy 1: not shown
heavy 2: not shown
light: B1 light
notes: as for B1
B12: GpH7-A5/GpH7-B3 variant Q295_14T/GpL16-k0 (antibody, human IgG1, kappa)
heavy 1: not shown
heavy 2: not shown
light: B1 light
notes: as for B1
B13: GpH7-A5/GpH7-B3 variant Q295_16H/GpL16-k0 (antibody, human IgG1, kappa)
heavy 1: not shown
heavy 2: not shown
light: B1 light
notes: as for B1
B14: GpH7-A5/GpH7-B3 variant Q295_18N/GpL16-k0 (antibody, human IgG1, kappa)
heavy 1: not shown
heavy 2: not shown
light: B1 light
notes: as for B1
B15: GpH7-A5/GpH7-B3 variant S298_03V/GpL16-k0 (antibody, human IgG1, kappa)
heavy 1: not shown
heavy 2: not shown
light: B1 light
notes: as for B1
B16: GpH7-A5/GpH7-B3 variant S298_04F/GpL16-k0 (antibody, human IgG1, kappa)
heavy 1: not shown
heavy 2: not shown
light: B1 light
notes: as for B1
B17: GpH7-A5/GpH7-B3 variant S298_07I/GpL16-k0 (antibody, human IgG1, kappa)
heavy 1: not shown
heavy 2: not shown
light: B1 light
notes: as for B1
B18: GpH7-A5/GpH7-B3 variant S298_09D/GpL16-k0 (antibody, human IgG1, kappa)
heavy 1: not shown
heavy 2: not shown
light: B1 light
notes: as for B1
B19: GpH7-A5/GpH7-B3 variant S298_14T/GpL16-k0 (antibody, human IgG1, kappa)
heavy 1: not shown
heavy 2: not shown
light: B1 light
notes: as for B1
B20: GpH7-A5/GpH7-B3 variant S298_15Y/GpL16-k0 (antibody, human IgG1, kappa)
heavy 1: not shown
heavy 2: not shown
light: B1 light
notes: as for B1
B21: GpH7-A5/GpH7-B3 variant S298_16H/GpL16-k0 (antibody, human IgG1, kappa)
heavy 1: not shown
heavy 2: not shown
light: B1 light
notes: as for B1
B22: GpH7-A5/GpH7-B3 variant S324_01G/GpL16-k0 (antibody, human IgG1, kappa)
heavy 1: not shown
heavy 2: not shown
light: B1 light
notes: as for B1
B23: GpH7-A5/GpH7-B3 variant S324_02A/GpL16-k0 (antibody, human IgG1, kappa)
heavy 1: not shown
heavy 2: not shown
light: B1 light
notes: as for B1
B24: GpH7-A5/GpH7-B3 variant S324_10E/GpL16-k0 (antibody, human IgG1, kappa)
heavy 1: not shown
heavy 2: not shown
light: B1 light
notes: as for B1
B25: GpH7-A5/GpH7-B3 variant S324_11K/GpL16-k0 (antibody, human IgG1, kappa)
heavy 1: not shown
heavy 2: not shown
light: B1 light
notes: as for B1
B26: GpH7-A5/GpH7-B3 variant S324_12R/GpL16-k0 (antibody, human IgG1, kappa)
heavy 1: not shown
heavy 2: not shown
light: B1 light
notes: as for B1
B27: GpH7-A5/GpH7-B3 variant S324_16H/GpL16-k0 (antibody, human IgG1, kappa)
heavy 1: not shown
heavy 2: not shown
light: B1 light
notes: as for B1
B28: GpH7-A5/GpH7-B3 variant S324_19Q/GpL16-k0 (antibody, human IgG1, kappa)
heavy 1: not shown
heavy 2: not shown
light: B1 light
notes: as for B1
B29: GpH7-A5/GpH7-B3 variant Y296_20W/GpL16-k0 (antibody, human IgG1, kappa)
heavy 1: not shown
heavy 2: not shown
light: B1 light
notes: as for B1
B30: GpH7-A5/GpH7-B3 variant Y300_01G/GpL16-k0 (antibody, human IgG1, kappa)
heavy 1: not shown
heavy 2: not shown
light: B1 light
notes: as for B1
B31: GpH7-A5/GpH7-B3 variant Y300_07I/GpL16-k0 (antibody, human IgG1, kappa)
heavy 1: not shown
heavy 2: not shown
light: B1 light
notes: as for B1
B32: GpH7-A5/GpH7-B3 variant Y300_08L/GpL16-k0 (antibody, human IgG1, kappa)
heavy 1: not shown
heavy 2: not shown
light: B1 light
notes: as for B1
B33: GpH7-A5/GpH7-B3 variant Y300_13S/GpL16-k0 (antibody, human IgG1, kappa)
heavy 1: not shown
heavy 2: not shown
light: B1 light
notes: as for B1
B34: GpH7-A5/GpH7-B3 variant Y300_14T/GpL16-k0 (antibody, human IgG1, kappa)
heavy 1: not shown
heavy 2: not shown
light: B1 light
notes: as for B1

Molecular target: T2, FcγRIIIa extracellular domain with C-terminal His tag (human, UniProt P08637 17-208)
T2 construct: extracellular domain; also called FcgRIIIa; 3a
Assay: SPR (Biacore); He/Con_3a divided by He/Con_2b (FcγRIIIa against FcγRIIb)
Description: (§1) The heterodimerized antibodies He Abs in which one of the H chains was introduced with an alteration were assayed for their binding activities to each activating FcγR and inhibitory FcγR according to the method described in Example 4. […] The activating FcγRs in FIGS. 26, 27, 28, and 29 are FcγRIa, FcγRIIa (R), FcγRIIa (H), and FcγRIIIa, respectively.
(§2) Analysis of interaction between objective antibody and the FcγR was carried out using Biacore T100 (GE Healthcare). HBS-EP+ (GE Healthcare) was used as the running buffer, and the measurement temperature was set to 25° C. Chips produced by immobilizing the antigen peptide by the amine coupling method to a Series S Sencor Chip CM5 (GE Healthcare), or alternatively, chips produced by allowing preliminarily biotinylated antigen peptides to interact with and immobilize onto a Series S Sensor Chip SA (certified) (GE Healthcare) were used. Antibodies of interest were captured onto an antigen peptide-immobilized chip, and allowed to interact to each FcγR diluted with running buffer. To regenerate and repeatedly use the chip, the antibodies captured on the chip were washed off by reacting 10 mM glycine-HCl, pH 1.5.

T2 sequence (P08637 17-208): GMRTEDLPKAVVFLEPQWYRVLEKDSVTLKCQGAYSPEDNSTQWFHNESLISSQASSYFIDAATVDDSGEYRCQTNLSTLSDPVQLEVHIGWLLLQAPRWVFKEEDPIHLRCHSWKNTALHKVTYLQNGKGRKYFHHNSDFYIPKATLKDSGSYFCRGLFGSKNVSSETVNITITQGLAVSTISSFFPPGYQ

| Binder | He_3a/2b (IIIa/IIb) [ratio] |
| --- | --- |
| B1 | 1.37 |
| B2 | 1.33 |
| B3 | 1.27 |
| B4 | 1.33 |
| B5 | 1.27 |
| B6 | 1.35 |
| B7 | 1.69 |
| B8 | 1.39 |
| B9 | 1.76 |
| B10 | 1.52 |
| B11 | 1.51 |
| B12 | 1.72 |
| B13 | 1.22 |
| B14 | 1.26 |
| B15 | 1.69 |
| B16 | 1.26 |
| B17 | 1.37 |

| Binder | He_3a/2b (IIIa/IIb) [ratio] |
| --- | --- |
| B18 | 1.38 |
| B19 | 1.45 |
| B20 | 1.39 |
| B21 | 1.2 |
| B22 | 1.29 |
| B23 | 1.33 |
| B24 | 1.28 |
| B25 | 1.21 |
| B26 | 1.43 |
| B27 | 1.24 |
| B28 | 1.33 |
| B29 | 1.31 |
| B30 | 1.69 |
| B31 | 1.28 |
| B32 | 1.43 |
| B33 | 1.37 |
| B34 | 1.53 |

Molecular target: T1, FcγRIIb extracellular domain with …
Assay: SPR (Biacore), antibody captured on antigen peptide chip, FcγR as analyte; GpH7-A5/GpH7-B3/GpL16-k0 = 100
Description: as §1, §2

| Binder | He/Con_2b (relative binding activity) |
| --- | --- |
| B1 | 108 % of control |
| B2 | 111 % of control |
| B3 | 105 % of control |
| B4 | 109 % of control |
| B5 | 119 % of control |
| B6 | 106 % of control |
| B7 | 94.8 % of control |
| B8 | 40.5 % of control |
| B9 | 16.9 % of control |
| B10 | 17.6 % of control |
| B11 | 56.9 % of control |
| B12 | 66.8 % of control |
| B13 | 62.7 % of control |
| B14 | 64.9 % of control |
| B15 | 64.5 % of control |
| B16 | 65.4 % of control |
| B17 | 70.6 % of control |

| Binder | He/Con_2b (relative binding activity) |
| --- | --- |
| B18 | 48.3 % of control |
| B19 | 77.9 % of control |
| B20 | 61.4 % of control |
| B21 | 63.5 % of control |
| B22 | 81.1 % of control |
| B23 | 78.3 % of control |
| B24 | 77.4 % of control |
| B25 | 68.6 % of control |
| B26 | 63.1 % of control |
| B27 | 83.5 % of control |
| B28 | 66.8 % of control |
| B29 | 103 % of control |
| B30 | 48.4 % of control |
| B31 | 74.5 % of control |
| B32 | 73.6 % of control |
| B33 | 53.9 % of control |
| B34 | 55.6 % of control |

Molecular target: T2, FcγRIIIa extracellular domain with …
Assay: as above
Description: as §1, §2

| Binder | He/Con_3a (relative binding activity) |
| --- | --- |
| B1 | 147 % of control |
| B2 | 148 % of control |
| B3 | 134 % of control |
| B4 | 144 % of control |
| B5 | 151 % of control |
| B6 | 143 % of control |
| B7 | 160 % of control |
| B8 | 56.4 % of control |
| B9 | 29.6 % of control |
| B10 | 26.7 % of control |
| B11 | 86.1 % of control |
| B12 | 115 % of control |
| B13 | 76.4 % of control |
| B14 | 81.6 % of control |
| B15 | 109 % of control |
| B16 | 82.5 % of control |
| B17 | 96.4 % of control |

| Binder | He/Con_3a (relative binding activity) |
| --- | --- |
| B18 | 66.7 % of control |
| B19 | 113 % of control |
| B20 | 85.6 % of control |
| B21 | 76.5 % of control |
| B22 | 105 % of control |
| B23 | 104 % of control |
| B24 | 99.3 % of control |
| B25 | 83 % of control |
| B26 | 90.3 % of control |
| B27 | 104 % of control |
| B28 | 88.5 % of control |
| B29 | 135 % of control |
| B30 | 81.6 % of control |
| B31 | 95.1 % of control |
| B32 | 105 % of control |
| B33 | 73.9 % of control |
| B34 | 85.4 % of control |
